In publication PMC6535076, “Poly(ADP-ribosyl)ation and DNA repair synthesis in the extracts of naked mole rat, mouse, and human cells”:

Legend:
PARP2 = PARP2 (mouse (murine), UniProt O88554 1-559); assay: photoaffinity crosslinking; 100 nM protein, 100 nM DNA, EDTA; UV photo-crosslinking, 100 nM 5'-32P photoreactive DNA, EDTA present, Pol beta carried over from probe synthesis, SDS-PAGE; binding buffer, pH and temperature not given in the material; details: protein: recombinant; label: 5'-32P on strand 1; nicked duplex of 3 strands (upstream, downstream, template), blunt outer ends, 5'-dRP at nick
PARP1 = PARP1 (human, UniProt P09874 1-1014); assay: as above; details: protein: recombinant; label: 5'-32P on strand 1; nicked duplex of 3 strands (upstream, downstream, template), blunt outer ends, 5'-dRP at nick
HMGB1 = HMGB1 (calf (thymus), UniProt P10103 2-215); assay: photoaffinity crosslinking; 300 nM protein, 100 nM DNA, EDTA; more efficient than other DNAs; UV photo-crosslinking, 100 nM 5'-32P photoreactive DNA, EDTA present, Pol beta carried over from probe synthesis, SDS-PAGE; binding buffer, pH and temperature not given in the material; details: protein: native; label: 5'-32P on strand 1; nicked duplex of 3 strands, blunt outer ends, 6-nt 5' single-stranded flap (GATAAC) at nick
HMGB1, sequence (P10103 2-215): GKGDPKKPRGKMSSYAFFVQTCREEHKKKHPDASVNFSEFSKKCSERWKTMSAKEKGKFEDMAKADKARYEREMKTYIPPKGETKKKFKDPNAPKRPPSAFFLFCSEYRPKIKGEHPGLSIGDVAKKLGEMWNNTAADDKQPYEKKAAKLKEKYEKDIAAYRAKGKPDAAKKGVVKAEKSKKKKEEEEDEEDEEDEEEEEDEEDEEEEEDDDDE

PARP1, sequence (P09874 whole entry): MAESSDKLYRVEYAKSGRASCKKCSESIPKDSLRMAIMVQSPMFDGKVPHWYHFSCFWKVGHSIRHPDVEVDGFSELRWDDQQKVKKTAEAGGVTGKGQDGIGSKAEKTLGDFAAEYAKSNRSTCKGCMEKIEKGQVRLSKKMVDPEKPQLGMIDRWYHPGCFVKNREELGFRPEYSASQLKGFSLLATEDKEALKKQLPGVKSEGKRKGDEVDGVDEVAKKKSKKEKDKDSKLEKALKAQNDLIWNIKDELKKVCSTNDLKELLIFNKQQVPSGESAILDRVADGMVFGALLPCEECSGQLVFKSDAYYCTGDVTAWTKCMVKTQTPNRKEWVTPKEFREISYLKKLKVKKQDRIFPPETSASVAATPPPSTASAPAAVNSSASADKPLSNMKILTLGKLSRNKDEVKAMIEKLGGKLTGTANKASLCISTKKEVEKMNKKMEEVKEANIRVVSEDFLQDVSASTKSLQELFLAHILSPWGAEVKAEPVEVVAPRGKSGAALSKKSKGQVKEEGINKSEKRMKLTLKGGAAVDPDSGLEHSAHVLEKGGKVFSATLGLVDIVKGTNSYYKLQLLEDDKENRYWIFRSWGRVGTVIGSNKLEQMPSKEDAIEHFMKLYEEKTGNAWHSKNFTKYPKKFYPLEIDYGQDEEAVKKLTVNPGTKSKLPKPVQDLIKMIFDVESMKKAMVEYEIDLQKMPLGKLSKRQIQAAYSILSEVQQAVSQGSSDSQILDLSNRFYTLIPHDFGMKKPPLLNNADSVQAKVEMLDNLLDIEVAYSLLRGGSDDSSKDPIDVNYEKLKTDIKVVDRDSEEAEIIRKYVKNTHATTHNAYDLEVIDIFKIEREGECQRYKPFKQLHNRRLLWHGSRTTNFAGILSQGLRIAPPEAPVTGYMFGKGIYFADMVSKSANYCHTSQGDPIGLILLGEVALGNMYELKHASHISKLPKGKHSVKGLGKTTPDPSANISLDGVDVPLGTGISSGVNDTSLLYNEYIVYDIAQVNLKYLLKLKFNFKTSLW
PARP2, sequence (O88554 whole entry): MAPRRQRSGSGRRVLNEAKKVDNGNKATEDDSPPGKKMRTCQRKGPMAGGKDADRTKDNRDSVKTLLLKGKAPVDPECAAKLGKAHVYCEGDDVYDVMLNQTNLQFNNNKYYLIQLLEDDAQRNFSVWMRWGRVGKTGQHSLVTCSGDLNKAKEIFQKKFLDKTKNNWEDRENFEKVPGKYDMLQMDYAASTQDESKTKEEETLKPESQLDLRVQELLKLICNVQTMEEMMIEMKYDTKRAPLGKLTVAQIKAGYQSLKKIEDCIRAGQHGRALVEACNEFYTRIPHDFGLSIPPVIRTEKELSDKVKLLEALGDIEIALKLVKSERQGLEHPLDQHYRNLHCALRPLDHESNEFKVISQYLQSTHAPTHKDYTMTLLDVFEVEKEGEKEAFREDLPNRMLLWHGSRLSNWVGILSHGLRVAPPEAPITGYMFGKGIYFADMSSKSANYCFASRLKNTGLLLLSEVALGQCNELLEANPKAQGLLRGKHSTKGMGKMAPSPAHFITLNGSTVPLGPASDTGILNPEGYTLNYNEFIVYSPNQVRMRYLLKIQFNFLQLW

Binder	binding result (PARP2)	binding result (PARP1)	binding result (HMGB1)
Pho-dRP (dsDNA, strand 1 3'-terminal C is FAP-dCMP (photoreactive exo-N-substituted dC); strand 2 carries 5'-dRP (phosphate-linked, from Ung-treated 5'-pU)) DNA 1: GGCGACTAAGCCGGGC DNA 2: AACGCCAGGGCCTCCC DNA 3: GGGAGGCCCTGGCGTTGCCCGGCTTAGTCGCC	binds	binds	
Pho-Flap (dsDNA, strand 1 3'-terminal C is FAP-dCMP) DNA 1: GGCGACTAAGCCGGGC DNA 2: GATAACAACGCCAGGGCCTCCC DNA 3: GGGAGGCCCTGGCGTTGCCCGGCTTAGTCGCC			binds
